Source: US20200317768A1 (published 2020)
Numbering of substitutions follows the chain as printed. One block for each binder: values may come before it.

How the values were obtained:
[1] = biological target: T1, cynomolgus monkey FcγRIIa2 extracellular domain with C-terminal His-tag (cynomolgus monkey); test: SPR (Biacore), antibody captured on chip, FcgR extracellular domain as analyte, 25 C
T1 construct: Expressed in FreeStyle 293 cells and purified; also called cyno FcγRIIa2; cynoFcgRIIa2; not shown: C-terminal His-tag
T1 chain: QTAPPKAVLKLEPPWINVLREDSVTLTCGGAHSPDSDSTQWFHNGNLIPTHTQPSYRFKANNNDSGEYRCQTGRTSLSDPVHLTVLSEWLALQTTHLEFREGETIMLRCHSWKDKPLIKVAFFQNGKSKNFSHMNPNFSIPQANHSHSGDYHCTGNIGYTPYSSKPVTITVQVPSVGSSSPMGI

[2] = biological target: T2, cynomolgus monkey FcγRIIb extracellular domain with C-terminal His-tag (cynomolgus monkey); test: as above
T2 construct: Expressed in FreeStyle 293 cells and purified; also called cyno FcγRIIb; cynoFcγRIIb; not shown: C-terminal His-tag
T2 chain: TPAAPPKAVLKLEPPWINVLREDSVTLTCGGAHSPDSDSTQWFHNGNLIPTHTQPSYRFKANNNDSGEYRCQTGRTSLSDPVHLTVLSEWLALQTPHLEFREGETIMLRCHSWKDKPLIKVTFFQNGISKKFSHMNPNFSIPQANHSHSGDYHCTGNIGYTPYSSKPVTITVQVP

Mouse latent myostatin = biological target: T3, Mouse latent myostatin (mouse, UniProt O08689 26-267; O08689 268-376); test: SPR (BIACORE T200), 37 C, pH5.8, 1:1 fit; title prints avidity, by the text the affinity condition (capture 18.5 RU); pH 5.8
T3 construct: signal 1-24
T3 sequence 1: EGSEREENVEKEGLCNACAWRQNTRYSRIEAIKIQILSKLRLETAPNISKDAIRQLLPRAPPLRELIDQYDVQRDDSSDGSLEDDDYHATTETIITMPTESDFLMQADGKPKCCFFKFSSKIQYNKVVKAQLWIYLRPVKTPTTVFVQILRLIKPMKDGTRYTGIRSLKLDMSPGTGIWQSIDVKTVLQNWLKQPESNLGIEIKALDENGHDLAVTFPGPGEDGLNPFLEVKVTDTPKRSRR
T3 sequence 2: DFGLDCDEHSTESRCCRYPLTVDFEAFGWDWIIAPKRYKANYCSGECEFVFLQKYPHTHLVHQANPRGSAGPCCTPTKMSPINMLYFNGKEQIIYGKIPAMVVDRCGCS
Protocol: (§1) The kinetic parameters of anti-latent myostatin antibodies against human, cynomolgus monkey (cyno), and mouse latent myostatin were assessed at 37° C. at pH7.4 using a BIACORE® T200 instrument (GE Healthcare). ProA/G (Pierce) was immobilized onto all flow cells of a CM4 chip using amine coupling kit (GE Healthcare). Anti-latent myostatin antibody and analytes were prepared in ACES pH7.4 (20 mM ACES, 150 mM NaCl, 1.2 mM CaCl₂), 0.05% TWEEN® 20, 0.005% NaN₃). […] Then human, cyno, or mouse latent myostatin was injected at 3.125 to 50 nM prepared by two-fold serial dilution, followed by dissociation. The sensor surface was regenerated with 25 mM NaOH. Kinetic parameters were determined by processing and fitting the data to a 1:1 binding model using BIACORE® T200 Evaluation software, version 2.0 (GE Healthcare).
(§2) All experimental settings were the same as in Example 7, except that measurements were also performed in ACES pH5.8 buffer in addition to ACES pH7.4 condition. Some antibodies were only measured against human latent myostatin. Antibody capture level was aimed at 185 RU and 18.5 RU, for avidity and affinity assay, respectively. Kinetic parameters were determined using 1:1 Binding fitting using BIACORE® T200 Evaluation software, version 2.0 (GE Healthcare).

Human latent myostatin = biological target: T4, Human latent myostatin (human, UniProt O14793 25-266; O14793 267-375); test: as above
T4 construct: Biotinylated in the ELISAs; also called human myostatin latent form
T4 sequence 1: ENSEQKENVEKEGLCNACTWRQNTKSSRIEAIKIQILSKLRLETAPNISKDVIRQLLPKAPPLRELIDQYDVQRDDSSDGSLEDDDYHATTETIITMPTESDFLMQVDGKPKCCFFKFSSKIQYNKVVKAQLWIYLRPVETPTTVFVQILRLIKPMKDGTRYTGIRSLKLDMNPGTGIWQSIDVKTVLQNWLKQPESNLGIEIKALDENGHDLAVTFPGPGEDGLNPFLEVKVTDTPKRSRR
T4 sequence 2: T3 sequence 2
Protocol: as §1, §2

[3] = biological target: T5, Cynomolgus monkey latent myostatin (cynomolgus monkey, UniProt Q95J86 25-266; Q95J86 267-375); test: as above
T5 construct: signal 1-24; also called Cyno latent myostatin
T5 sequence 1: T4 sequence 1 with V52A
T5 sequence 2: T3 sequence 2
Protocol: as §1, §2

B1: M103205H795-MY180 / M103202L889-SK1 (antibody, human IgG1, kappa)
heavy: QVTLKESGPVLVKPTETLTLTCTVSGIDLSHDDISWVRQAPGKGLEWVGIISYAGSTYYASWAKGRLTISKDTSKNQVVLTMTNMDPVDTATYYCARGVPAYSHGGDLWGQGTLVTVSSASTKGPSVFPLAPSSKSTSGGTAALGCLVKDYFPEPVTVSWNSGALTSGVHTFPAVLQSSGLYSLSSVVTVPSSSLGTQTYICNVNHKPSNTKVDKKVEPKSCDKTHTCPPCPAPELLNGPSVFLFPPKPKDTLMISRTPEVTCVVVDVSEEDPEVKFNWYVDGVEVHNAKTKPREEQYNSTYRVVSVLTVLHQDWLNGKEYKCKVSNKALPAPIEKTISKAKGQPREPQVYTLPPSREEMTKNQVSLTCLVKGFYPSDIAVEWESNGQPENNYKTTPSVLDSDGSFFLYSKLTVDKSRWQQGNVFSCSVMHEALHNHYTQKSLSLSP
light: DIVMTQSPATLSLSPGERATLSCTSSQSVYHANWLSWFQQKPGQPPKLLIYWASTLAYGVPSRFSGSGSGTDFTLTISSLQPEDAATYYCAGGYGGGRYAFGQGTKVEIKRTVAAPSVFIFPPSDEQLKSGTASVVCLLNNFYPREAKVQWKVDNALQSGNSQESVTEQDSKDSTYSLSSTLTLSKADYEKHKVYACEVTHQGLSSPVTKSFNRGEC
notes: Position 396 variant derived from MY052, expressed with M103202L889-SK1 as light chain
Kd [1]: 2700 nM | Kd [2]: 1300 nM

B2: M103205H795-MY182 / M103202L889-SK1 (antibody, human IgG1, kappa)
heavy: B1 heavy with S398V
light: B1 light
notes: as for B1
Kd [1]: 2200 nM | Kd [2]: 960 nM

B3: M103205H795-MY181 / M103202L889-SK1 (antibody, human IgG1, kappa)
heavy: B1 heavy with S398T
light: B1 light
notes: as for B1
Kd [1]: 2300 nM | Kd [2]: 1000 nM

B6: MS_M103205H000-SG1/M103202LO00-SK1 (antibody, human IgG1, kappa, V domains shown)
VH: QVTLKESGPVLVKPTETLTLTCTVSGIDLSSYDISWVRQAPGKGLEWVGIISYAGSTYYASWAKGRLTISKDTSKNQVVLTMTNMDPVDTATYYCARGVPAYSTGGDLWGQGTLVTVSS
VL: DIVMTQSPATLSLSPGERATLSCQSSQSVYDNNWLSWFQQKPGQPPKLLIYWASTLASGVPSRFSGSGSGTDFTLTISSLQPEDAATYYCAGGYGGGLYAFGQGTKVEIKR
notes: Humanized MST1032, not pH-dependent; also called MS1032LO00-SG1; Ab001
Kd (Mouse latent myostatin): 0.0438 nM | koff (Mouse latent myostatin): 7.08e-05 s⁻¹ | kon (Mouse latent myostatin): 1.62e+06 M⁻¹ s⁻¹ | Kd (Human latent myostatin): 0.215 nM | koff (Human latent myostatin): 0.000235 s⁻¹ | kon (Human latent myostatin): 1.09e+06 M⁻¹ s⁻¹ | Kd [3]: 0.139 nM | koff [3]: 0.000196 s⁻¹ | kon [3]: 1.41e+06 M⁻¹ s⁻¹

The remaining binders from weak to strong by Kd [1], led by results:

Kd [1]: 2000 nM | Kd [2]: 970 nM
B4: M103205H795-MY183 / M103202L889-SK1 (antibody, human IgG1, kappa)
heavy: B1 heavy with S398W
light: B1 light
notes: as for B1

Kd [1]: 2000 nM | Kd [2]: 980 nM
B5: M103205H795-MY184 / M103202L889-SK1 (antibody, human IgG1, kappa)
heavy: B1 heavy with S398Y
light: B1 light
notes: as for B1
